From US20190062438A1 (CSL, published 2019)
Changes are numbered by the printed parent chain.

How the values were obtained:
[1] = target: T1, soluble Homo sapiens CD131 comprising a C-terminal 6xHis tag (human, UniProt P32927 17-438); assay: SPR, Fab over captured shCD131
T1 construct: truncated after Ser438, C-terminal 6xHis; also called shCD131; shβc
T1 sequence: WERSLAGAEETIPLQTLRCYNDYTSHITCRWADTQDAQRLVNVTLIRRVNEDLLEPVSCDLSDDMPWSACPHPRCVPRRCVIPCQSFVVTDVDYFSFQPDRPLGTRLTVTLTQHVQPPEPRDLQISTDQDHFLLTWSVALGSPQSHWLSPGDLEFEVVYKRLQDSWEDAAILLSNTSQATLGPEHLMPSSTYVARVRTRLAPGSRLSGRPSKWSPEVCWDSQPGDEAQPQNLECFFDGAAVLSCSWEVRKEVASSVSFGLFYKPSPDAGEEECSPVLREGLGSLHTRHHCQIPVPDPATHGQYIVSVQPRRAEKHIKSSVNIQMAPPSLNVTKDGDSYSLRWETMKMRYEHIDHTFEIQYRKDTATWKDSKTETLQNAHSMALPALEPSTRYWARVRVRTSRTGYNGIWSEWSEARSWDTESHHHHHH
Protocol: Binding kinetics were measured using SPR with a BIAcore™ A-100 instrument (GE Healthcare Life Sciences). An anti-C-terminal Hexa-His antibody (3H3) was immobilized on spots 1, 2, 4 and 5 of each flow cell of a CM-5 sensor chip (GE Healthcare Life Sciences) using amine-coupling chemistry (116). […] As shβc is a dimer, kinetics assays were performed with shβc captured on the sensor surface, and purified Fab injected as the analyte. Avidity effects were avoided by the use of Fab rather than whole IgG.
shCD131 was captured on spots 1 and 5 of each flow cell for 2 minutes at a concentration of 0.4 μg/ml. […] For some analysis purified Fab was injected over each flow cell for 3 minutes and dissociation was monitored for a further 10 minutes. Regeneration of the surface was performed after each cycle with a 40 second injection of 25 mM glycine, pH 2.0. The analysis was performed with Fabs at several concentrations between 100 and 0.31 nM, with each concentration analyzed twice and in random order. The analysis was performed at a flow rate of 30 μl/min in HBS-EP buffer (10 mM Hepes, 150 mM NaCl, 3 mM EDTA, 0.005% Tween 20, pH 7.4) at 37° C. Responses from spots 2 and 4 of each flow cell, (in which shβc was not captured, but otherwise treated identically), were subtracted from those of spots 1 and 5 respectively to produce reference subtracted data. Reference subtracted responses from a blank injection comprising buffer alone were subtracted from the resultant sensorgrams to produce double referenced data suitable for kinetic analysis. Double-referenced sensorgrams were fitted using non-linear regression to a model describing 1:1 kinetics, including a term for mass transport limitation. The Rₘₐₓ value was fitted locally to account for slight deviations in the level of sCD131 captured, with association rate (kₐ), dissociation rate (kd) and equilibrium dissociation constant (KD) fitted globally.

human CD131 = target: T2, human CD131 (human, UniProt P32927 17-897); assay: cell-based or functional assay
T2 sequence: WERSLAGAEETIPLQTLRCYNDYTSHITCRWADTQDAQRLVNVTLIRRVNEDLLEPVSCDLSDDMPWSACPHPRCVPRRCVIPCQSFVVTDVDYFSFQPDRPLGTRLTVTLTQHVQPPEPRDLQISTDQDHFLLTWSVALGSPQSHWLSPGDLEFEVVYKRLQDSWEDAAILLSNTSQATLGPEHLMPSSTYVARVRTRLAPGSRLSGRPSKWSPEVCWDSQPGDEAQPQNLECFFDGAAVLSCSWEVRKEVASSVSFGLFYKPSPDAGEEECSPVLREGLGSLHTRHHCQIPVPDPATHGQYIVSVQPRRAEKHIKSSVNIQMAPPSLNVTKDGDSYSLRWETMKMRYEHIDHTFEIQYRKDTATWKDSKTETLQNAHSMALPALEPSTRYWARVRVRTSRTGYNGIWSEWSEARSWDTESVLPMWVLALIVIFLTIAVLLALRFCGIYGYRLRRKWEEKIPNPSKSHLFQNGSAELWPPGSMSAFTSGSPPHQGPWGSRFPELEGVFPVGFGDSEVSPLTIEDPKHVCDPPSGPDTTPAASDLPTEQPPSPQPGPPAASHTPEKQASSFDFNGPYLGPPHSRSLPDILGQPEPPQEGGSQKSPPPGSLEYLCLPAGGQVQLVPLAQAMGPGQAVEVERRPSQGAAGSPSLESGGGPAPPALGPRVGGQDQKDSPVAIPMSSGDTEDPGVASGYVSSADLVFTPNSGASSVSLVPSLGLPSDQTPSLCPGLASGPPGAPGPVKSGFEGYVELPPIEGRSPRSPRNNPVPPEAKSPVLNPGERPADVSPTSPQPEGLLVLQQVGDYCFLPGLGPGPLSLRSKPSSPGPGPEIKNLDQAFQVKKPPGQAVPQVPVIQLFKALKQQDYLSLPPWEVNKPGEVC

B1: 9A2-VR24.107 Fab (Fab, V domains shown)
VH: EVQLLESGGGLVQPGGSLRLSCAASGFTFPWYRVHWVRQAPGKGLEWVSSIRSSGGFPYYNPFVKGRFTISRDNSKNTLYLQMNSLRAEDTAVYYCARFYDSFFDIWGQGTMVTVSS
VL: DIQMTQSPSSVSASVGDRVTITCRASQGISSWLAWYQQKPGKAPKLLIYAASSLQSGVPSRFSGSGSGTDFTLTISSLQPEDFATYYCQQANSFPITFGQGTRLEIKR
notes: recombinant Fab
With B1 the Kd [1] was 0.183 nM, the koff [1] was 0.00053 s⁻¹ and the kon [1] was 2.89e+06 M⁻¹ s⁻¹.

B2: 9A2-VR24.110 Fab (Fab, V domains shown)
VH: B1 VH with P62N, F63H
VL: B1 VL
notes: recombinant Fab
Work on B2 yielded a Kd [1] of 0.151 nM, a koff [1] of 0.000475 s⁻¹ and a kon [1] of 3.15e+06 M⁻¹ s⁻¹.

B3: 9A2-VR24.111 Fab (Fab, V domains shown)
VH: B1 VH with Y59M, F63H
VL: B1 VL
notes: recombinant Fab
B3 was tested, and the Kd [1] was 0.236 nM, the koff [1] was 0.000637 s⁻¹ and the kon [1] was 2.7e+06 M⁻¹ s⁻¹.

B4: 9A2-VR24.122 Fab (Fab, V domains shown)
VH: B1 VH with P58T, P62S, F63E
VL: B1 VL
notes: recombinant Fab
B4 was tested, and the Kd [1] was 0.353 nM, the koff [1] was 0.000897 s⁻¹ and the kon [1] was 2.54e+06 M⁻¹ s⁻¹.

B5: 9A2-VR24.124 Fab (Fab, V domains shown)
VH: B1 VH with P58T, N61T, F63S, K65R
VL: B1 VL
notes: recombinant Fab
B5 was tested, and the Kd [1] was 0.25 nM, the koff [1] was 0.00076 s⁻¹ and the kon [1] was 2.9e+06 M⁻¹ s⁻¹.

B6: 9A2-VR39.01 Fab (Fab, V domains shown)
VH: EVQLLESGGGLVQPGGSLRLSCAASGFTFFWFHHVWVRQAPGKGLEWVSSINGRGRVTYYADSVKGRFTISRDNSKNTLYLQMNSLRAEDTAVYYCARFYDSFFDIWGQGTMVTVSS
VL: B1 VL
notes: recombinant Fab
Binder B6 has a Kd [1] of 0.102 nM, a koff [1] of 0.00031 s⁻¹ and a kon [1] of 3.04e+06 M⁻¹ s⁻¹.

B7: 9A2-VR39.02 Fab (Fab, V domains shown)
VH: B6 VH with F30Y, F32Y, H34M, V35I
VL: B1 VL
notes: recombinant Fab
With B7 the Kd [1] was 0.0877 nM, the koff [1] was 0.000341 s⁻¹ and the kon [1] was 3.89e+06 M⁻¹ s⁻¹.

B8: 9A2-VR39.04 Fab (Fab, V domains shown)
VH: B6 VH with F30N, H33Q, V35I
VL: B1 VL
notes: recombinant Fab
For B8, the Kd [1] was 0.329 nM, the koff [1] was 0.00117 s⁻¹ and the kon [1] was 3.55e+06 M⁻¹ s⁻¹.

B9: 9A2-VR39.17 Fab (Fab, V domains shown)
VH: B6 VH with F30P, W31F, F32Y, H34K
VL: B1 VL
notes: recombinant Fab
B9 gave a Kd [1] of 0.201 nM, a koff [1] of 0.000566 s⁻¹ and a kon [1] of 2.81e+06 M⁻¹ s⁻¹.

B10: 9A2-VR39.22 Fab (Fab, V domains shown)
VH: B6 VH with F30Q, F32Y, H34V, V35I
VL: B1 VL
notes: recombinant Fab
B10 was tested, and the Kd [1] was 0.141 nM, the koff [1] was 0.000441 s⁻¹ and the kon [1] was 3.13e+06 M⁻¹ s⁻¹.

B11: 9A2-VR39.24 Fab (Fab, V domains shown)
VH: B6 VH with F30H, W31H, H34V, V35I
VL: B1 VL
notes: recombinant Fab
Work on B11 yielded a Kd [1] of 0.169 nM, a koff [1] of 0.0005 s⁻¹ and a kon [1] of 2.96e+06 M⁻¹ s⁻¹.

B12: 9A2-VR39.93 Fab (Fab, V domains shown)
VH: B6 VH with F30S, W31H, F32Y, H34M, V35L, A61N, D62P, S63A, V64W, G66K
VL: B1 VL
notes: recombinant Fab
Work on B12 yielded a Kd [1] of 0.171 nM, a koff [1] of 0.00071 s⁻¹ and a kon [1] of 4.15e+06 M⁻¹ s⁻¹.

B13: 9A2-VR39.109 Fab (Fab, V domains shown)
VH: B6 VH with F30M, F32Y, V35I
VL: B1 VL
notes: recombinant Fab
Work on B13 yielded a Kd [1] of 0.098 nM, a koff [1] of 0.00033 s⁻¹ and a kon [1] of 3.4e+06 M⁻¹ s⁻¹.

B14: 9A2-VR39.110 Fab (Fab, V domains shown)
VH: B6 VH with F30V, F32Y, V35I
VL: B1 VL
notes: recombinant Fab
B14 showed a Kd [1] of 0.11 nM, a koff [1] of 0.00039 s⁻¹ and a kon [1] of 3.8e+06 M⁻¹ s⁻¹.

B15: 9A2-VR39.177 Fab (Fab, V domains shown)
VH: B6 VH with F30S, W31H, F32Y, H34M, V35L, D62L, S63E, V64Y, G66K
VL: B1 VL
notes: recombinant Fab
B15 showed a Kd [1] of 0.15 nM, a koff [1] of 0.000554 s⁻¹ and a kon [1] of 3.69e+06 M⁻¹ s⁻¹.

B16: 9A2-VR39.22 (antibody, V domains shown)
VH: B6 VH with F30Q, F32Y, H34V, V35I
VL: B1 VL
For B16, the “IC50 GM-CSF, TF-1 proliferation” value (human CD131) was 0.5 nM.

B17: 9A2-VR39.23 (antibody, V domains shown)
VH: B6 VH with F30H, W31H, F32Y, H34T
VL: B1 VL
B17 was tested, and the “IC50 GM-CSF, TF-1 proliferation” value (human CD131) was 0.9 nM.

B18: 9A2-VR39.24 (antibody, V domains shown)
VH: B6 VH with F30H, W31H, H34V, V35I
VL: B1 VL
With B18 the “IC50 GM-CSF, TF-1 proliferation” value (human CD131) was 0.42 nM.

B19: 9A2-VR39.97 (antibody, V domains shown)
VH: B6 VH with F30P, H34F
VL: B1 VL
In the case of B19, the “IC50 GM-CSF, TF-1 proliferation” value (human CD131) is reported as 0.92 nM.

B20: 9A2-VR39.98 (antibody, V domains shown)
VH: B6 VH with F30E, W31H, F32Y, H34T, V35I
VL: B1 VL
In the case of B20, the “IC50 GM-CSF, TF-1 proliferation” value (human CD131) is reported as 1.44 nM.

B21: 9A2-VR39.102 (antibody, V domains shown)
VH: B6 VH with F30Q, H34Y, V35I
VL: B1 VL
For B21, the “IC50 GM-CSF, TF-1 proliferation” value (human CD131) was 2.29 nM.

B22: 9A2-VR39.103 (antibody, V domains shown)
VH: B6 VH with F30Q, W31H, H34W
VL: B1 VL
B22 was tested, and the “IC50 GM-CSF, TF-1 proliferation” value (human CD131) was 5.14 nM.

B23: 9A2-VR39.105 (antibody, V domains shown)
VH: B6 VH with F30P, W31Y, F32Y, H34M, V35I
VL: B1 VL
In the case of B23, the “IC50 GM-CSF, TF-1 proliferation” value (human CD131) is reported as 0.53 nM.

B24: 9A2-VR39.109 (antibody, V domains shown)
VH: B6 VH with F30M, F32Y, V35I
VL: B1 VL
B24 was tested, and the “IC50 GM-CSF, TF-1 proliferation” value (human CD131) was 0.24 nM.

B25: 9A2-VR39.110 (antibody, V domains shown)
VH: B6 VH with F30V, F32Y, V35I
VL: B1 VL
B25 was tested, and the “IC50 GM-CSF, TF-1 proliferation” value (human CD131) was 0.28 nM.

B26: 9A2-VR39.111 (antibody, V domains shown)
VH: B6 VH with F30P, H34F
VL: B1 VL
B26 was tested, and the “IC50 GM-CSF, TF-1 proliferation” value (human CD131) was 0.99 nM.

B27: 9A2-VR39.112 (antibody, V domains shown)
VH: B6 VH with F30P, W31Y, F32Y, H34Q
VL: B1 VL
B27 was tested, and the “IC50 GM-CSF, TF-1 proliferation” value (human CD131) was 1 nM.
